Read-outs that look alike come from different tables or passages of the source.
What was measured:
[1] = molecular target: SusF, purified recombinant (untagged) (Legionella pneumophila (Philadelphia-1 Lp01)) (UniProt Q5ZSL2); assay: SPR
[2] = molecular target: SusF, purified recombinant (untagged) (Legionella pneumophila (Philadelphia-1 Lp01)) (UniProt Q5ZSL2); assay: SPR; remark: listed apart in the source
[3] = molecular target: SusF co-expressed with SidI (Legionella pneumophila (Philadelphia-1 Lp01)); assay: SEC

## His6-SidI (from UniProt Q5ZSL3 1-942) (natural protein)
[1]
  Kd: 3.1 nM
  koff,1 (two-state model, first step): 0.00051 s⁻¹
  koff,2 (two-state model, second step): 0.00045 s⁻¹
  kon,1 (two-state model, first step): 27000 M⁻¹ s⁻¹
  kon,2 (two-state model, second step): 0.0023 s⁻¹
[2]
  Kd: 0.89 nM
  koff: 0.00019 s⁻¹
  kon: 220000 M⁻¹ s⁻¹

## SidI co-expressed with SusF (natural protein)
[3]
  stoichiometry N: 1
